Reference: patent US20250289893A1 (OXFORD UNIVERSITY INNOVATION, published 2025)

Tests used:
[1] = biological target: Chinese variant CD1a protein (human) (UniProt P06126); assay: ELISA, 1 µg/ml antibody
[2] = biological target: T1, human CD1a protein (pool B) (human, UniProt P06126 18-295, limits assumed); assay: ELISA, 0.316 µg/ml antibody
T1 construct: Recombinant protein of the ELISA (coated) and the Biacore T200 titration; whole entry named; also called human CD1a pool B; full length CD1a

[3] = biological target: T2, human CD1a expressed on cells (human, UniProt P06126 17-327; P61769 21-119); assay: flow cytometry, MOLT4 cells, 3.16 µg/ml antibody
T2 construct: also called HEK - CD1a; C1R - CD1a

[4] = biological target: T3, CD1a[H86 A] (human, UniProt P06126 18-295, limits assumed); assay: epitope mapping experiments (not described)
T3 construct: also called point mutant CD1a[H86A]
T3 chain: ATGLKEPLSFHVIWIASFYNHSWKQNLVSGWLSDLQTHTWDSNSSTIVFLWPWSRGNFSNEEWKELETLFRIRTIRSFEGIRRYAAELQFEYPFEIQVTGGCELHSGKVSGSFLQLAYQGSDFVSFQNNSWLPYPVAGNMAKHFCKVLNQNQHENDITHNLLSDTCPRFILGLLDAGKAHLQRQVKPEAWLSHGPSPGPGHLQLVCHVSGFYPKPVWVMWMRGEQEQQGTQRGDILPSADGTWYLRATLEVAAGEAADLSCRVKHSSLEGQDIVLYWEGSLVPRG

Chain of Chinese variant CD1a protein (human) (P06126 18-295, change not shown): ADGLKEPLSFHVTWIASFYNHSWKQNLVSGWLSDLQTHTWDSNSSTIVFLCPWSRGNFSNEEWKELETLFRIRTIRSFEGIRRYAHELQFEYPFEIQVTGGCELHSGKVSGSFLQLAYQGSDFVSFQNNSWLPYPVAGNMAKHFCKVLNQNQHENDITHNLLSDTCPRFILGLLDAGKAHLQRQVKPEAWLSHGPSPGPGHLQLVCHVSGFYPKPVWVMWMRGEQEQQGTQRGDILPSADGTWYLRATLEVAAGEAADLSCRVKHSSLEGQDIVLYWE
T1 sequence (P06126 18-295 limits assumed): as the sequence (P06126 18-295, change not shown) above

Row | Binder | Optical Density (OD) [1] | Optical Density (OD) [2] | Fluorescence Intensity Geomean (normalized to background) [3] | binding result [4]
1 | 116 (VR12117) (antibody, V domains shown, also called OX116) VH: QSVEESGGRLVTPGTPLTLTCTVSGFSLSNYAMSWVRQAPGKGLEWIGIIYTTGFTYYASWVKGRFTISKTSTTVDLKITSPTTEDTATYFCARGLATYVSPPTRLDLWGQGTLVTVSS VL: AQVLTQTPSPVSAAVGGTVTINCQASQSIYNSKNLAWYQQKPGQPPKLLIYSASTLASGVPSRFKGSGSGTQFTLTISDLECDDAATYYCQGEFSCSSVDCATFGGGTEVVVK | 1.51 OD | 1.15 OD | 23.9 fold over background | 
2 | 77A (VR11851) (antibody, V domains shown, also called OX77a; antibody 77a) VH: QSVEESGGRLVTPGTPLTLTCTVSGFSLSSYAMSWVRQAPGKGLEWIGIISSSGTTYYASWAKGRFTISKTSTTVDLKITSPTTEDTATYFCARVDYYSSGWGGLWGPGTLVTVSS VL: AVEMTQTPASMSAAVGGTVTIKCQASEDIYSNLAWYQQKPGQPPKLLIYGASTLASGVPSRFKGSGSGTEYTLTISGVQCDDAATYYCQCTYDTSSYGNTFGGGTEMVVE | 0.78 OD | 1.39 OD | 7.4 fold over background | 
3 | 111 (VR12113) (antibody, V domains shown, also called OX111) VH: QSVEESGGRLVTPGTPLTLTCTASGFSLSTYAMSWVRQAPGKGLEWIGIISSSGSTYYASWAKGRFTISKTSTTVDLKITSPTTEDTATYFCARETWYWLDLWGQGTLVTVSS VL: AVEMTQTPASVSAAVGGTVTINCQASEDIYSNLAWYQQKPGQPPKLLIYGASTLASGVPSRFKGSGSGTEYTLTISGVQCDDAATYYCQCAYDSSSYGTPFGGGTEVVVK | 1.44 OD | 1.04 OD | 18.9 fold over background | 
4 | 110 (VR12112) (antibody, V domains shown, also called OX110; antibody 110) VH: QSVEESGGRLVTPGTPLTLTCTVSGFSLSSYAMIWVRQAPGKGLEWIGIINSSDNTHYATWAKGRFTISKTSTTVDLKITSPTTEDTATYFCARDPYDYGYGWYFDLWGPGTLVTVSS VL: AQVLTQTPSPVSAAVGGTVTINCQASQSVFNNKNLAWYQQKPGQPPKLLIYKASTLASGVSSRFKGSGSGTQFALTISGVQCDDAATYYCQGEFSCSSTDCVTFGGGTEVVVK | 1.79 OD | 1.18 OD | 22.6 fold over background | no binding
